Measurements: patent US20230416785A1, “NUCLEASE AND APPLICATION THEREOF” (CRISP-HR Therapeutics, Inc., priority 2020, published 2023)

How the values were obtained:
[1] = test system: A549 cells; test: Cellular toxicity / viability of transfected A549 cells (resazurin assay); type: cell-based
Method: A549 cells were chosen as they are both facile to grow and transfect, cost effective in terms of media and other reagents, and importantly have retained a functional p53 gene.
Cells were then allowed to recover for one additional day, after which viability was cells were incubated with resazurin (Millipore Sigma) for 4 hours, after which fluorescence was quantified by a plate reader (Perkin Elmer).
(§1) Unless otherwise noted, adherent cells (A549 or H1299) were seeded in 96 well plates and grown in either 50/50 F-12/DMEM or RPMI-1640 respectively, supplemented with 5% FBS and grown to roughly 70% confluency. Cells were then transfected with either Cal-Phos as described in Chen 2012 or Lipofectamine 3000 (Thermofisher). Fresh media was exchanged the next day and cellular viability was quantified on day 2.
(§2) 20 μL of 0.15 mg/mL Resazurin solution was added to cells either plated in 96 well plates for all cell lines, which were then incubated for ˜4 hours at 37° C. Cellular toxicity was quantified using a Tecan SpectraFlour Plus plate reader (Tecan) using a 535/595 filter set. Raw data was then normalized to the mean of the untransfected controls and plotted as described.
as §2, with “described. […] Stats: All two-sided students T-test with unequal variance.” for “described.”

[2] = test system: H1299 cells; test: Cellular viability of transfected H1299 cells (resazurin assay); type: cell-based, human; details: for cellular viability compared to RLucRT alone: H1299 cells, AAVS1 G1 or G2 plus RLucRT, two days
Excerpt: Next the viability of transfected cells was quantified via resazurin after two days, then cells were washed with PBS, then lysed and luminescence quantified via plate reader (FIG. 4B). […] Next Luminescence was quantified via the Renilla-Glo Luciferase Assay System (Promega) using a 96 well plate reader with luminescence capabilities (Tecan). After data collection, raw luminescence was background subtracted from non-transfected control cells, corrected for cellular viability, and plotted in FIG. 4D.
as §1, §2
After two days, cellular viability was quantified via Resazurin, then washed with PBS and lysed with 25 μL of cell lysis buffer, and luciferase activity was quantified via Renilla Luciferase Assay (Promega) and using a Tecan Infinite Mplex plate reader.

[3] = test system: Beta-Catenin1; test: Beta-Catenin1:mCherry knock-in in HEK293 cells; type: cell-based, human
[4] = test system: U2OS cells; test: RPA foci quantification in U2OS cells; type: cell-based, human
Method: After two days cells, cells were prepared for imaging as in Murkherjee et al 2015. Cytoplasm was extracted via two sequential 10 minute washes on ice consisting of Extraction Buffer 1: 10 mM PIPES, pH 7.0; 100 mM NaCl; 300 mM Sucrose; 3 mM MgCl2; 1 mM EGTA, 0.5% Triton X-100 and Extraction Buffer 2: 10 mM Tris-HCl, pH 7.5; 10 mM NaCl; 3 mM MgCl2, 1% Tween 40, 0.5% sodium deoxycholate. Cells were then fixed using 4% PFA for 20 minutes at RT, then washed three times with PBST, blocked in 5% goat-serum for 30 minutes at RT, then incubated overnight at 4° C. with 1:1000 dilution of mouse anti-RPA (Calbiochem; Catalog no: NA191). Next day cells were washed 5× with PBST with 20 minutes per wash, then incubated overnight at 4° C. with a 1:1000 dilution of anti-mouse Alexa fluor 568 (Thermo Fisher). Cells were washed next day cells were washed 5× with PBST with 20 minutes per wash, then mounted in Vectashield with DAPI (Vector Labs; Catalog no: H-1200), and imaged at 10× using an Leica Stellaris Confocal Microscope. Foci per cell were quantified using a custom script to identify number of RPA foci per cell. […] After two days cells were fixed, then cytoplasm extracted on ice, then remaining nuclei were stained for RPA. At the end of staining, nuclei were labeled with DAPI and cells were imaged via confocal microscopy. Post-imaging nuclei identification and RPA thresholding allowed quantification of the number of RPA foci per nuclei.

[5] = test system: CHO-SHS-1.2; test: CHO cell Cas9-HR8 stable knock-in, anti-Cas9 western blot; type: cell-based; details: CHO cells; CHO-SHS-1.2-G1; Puromycin 10 days, then 12 days without
Method: CHO-Freestyle Cells (Invitrogen) were grown to ˜70% confluency, after which were transfected using the Neon (Thermo) transfection system and 250 ng of Cas9-HR8, 250 ng of either CHO-SHS-1.2-G1, and 50 ng CHO-SHS-1.2-pCAG-Cas9-HR8-IRES-PuroR RT. Cells were allowed to recover for two days, then treated with […] Puromycin for 10 days, after which Puromycin selection was removed. Cells were grown for an additional 12 days, after which cells split and half were frozen, while the other half was treated with RIPA buffer (Santa-Cruz) to extract protein, with non-transfected control CHO cells protein also extracted via RIPA buffer. Lysate was normalized and 7.5 ug total protein was loaded onto a 4-12% Bis-Tris Acrylamide gel (Invitrogen), and transferred to nitrocellulose using BioRad blotting and transfer system (BioRad). Membrane was washed 3× with 1×PBST (BioRad), blocked for 10 minutes using EveryBlot blocking solution (BioRad), and incubated for 1 hr at RT with a 1:1000 dilution of mouse anti-Cas9 (SantaCruz). Membrane was washed 5× for 5 minutes each in PBST, then incubated for an hour with 1:1000 rabbit anti-mouse-HRP secondary antibody for 1 hr at RT. Membrane was then washed 5× for 5 minutes each in PBST, after which a 1× NC/DAB (ThermoFisher) solution was used to visualize bands. FIG. 22A illustrates an exemplary diagram showing CHO cell Cas9-HR8 stable knock-in protocol. […]

[6] = SHS-231, hH2B-G4 or B-Catenin1, vs non-treated control cells

With “Cas9-HR 8: hExo1(1-352)-Cas9 fusion of FIG. 1A; E. coli codon optimized vectors SEQ ID NO: 68 and 69” the “cellular viability relative to Cas9” value ([1]; Cadherin1 G1 or G2, Day 2 post transfection) was “significant increases in cellular viability”, the “cellular toxicity compared to Cas9” value ([1]; H2B-G4 guide, lipofectamine 3000) was “significant reduction in cellular toxicity” and the cellular toxicity ([1]; Int-G2 and Int-G3, CalPhos) was “dramatic reduction in cellular toxicity”. The “cellular viability relative to Cas9” value ([1]; SHS-231 G1, G2 or G3, Day 2 post transfection) was “significant increases in cellular viability”, the “toxicity in H1299 cells compared to A549” value ([2]; H1299 cells (lack functional p53 gene), H2B-G4 guide) was “small reduction” and the “cellular viability compared to RLucRT alone” value [2] was “slightly reduced”. The “cellular viability compared to RLucRT alone” value ([2]; listed as Cas9-HR8) was “no gross changes in cellular viability”, the “HDR rates compared to Cas9 (normalized knock-in rates)” value ([3]; B-Cat-G3) was about 2.5 × and the “absolute mCherry+ cells relative to Cas9-NT or repair template alone” value ([3]; Beta-Catenin-G1) was “significant increases in mCherry+ cells”. The “numbers of mCherry+ cells compared to repair template” value ([3]; Beta-Catenin-G1) was “significantly increased numbers of mCherry+ cells”, the “percent cells with 1-10 RPA foci” value [4, 6] was “increased the percentage of cells with RPA foci” and the “percent cells with any RPA foci” value [4, 6] was “increased the percentage of cells with RPA foci”. The “percent cells with 11-100 RPA foci compared to Cas9” value ([4]; targeting hH2B and Beta-Catenin1) was “significant decrease in cells with 11-100 RPA foci” and the “stable knock-in of Cas9-HR8 repair template (over 8 kb), anti-Cas9 western blot” value [5] was “stably integrated Cas9-HR8”.
